Literature values as cited in paper PMC6154725.

Target: Tyr7 (UniProt position 9, HHGWGYGQDDG)
Test: NMR
Conditions: solution, Zn enzyme, no ligand mentioned

For “Carbonic anhydrase II (HCA II) (Homo sapiens)”, the pKa is listed as roughly 7.
